Patent US20110059077A1 (JURIDICAL FDN THE CHEMO SERO THERAPEUTIC RES INST, published 2011)
Where two headings read alike, the source gives them in different places.

Key:
Test in all cases: cell-based or functional assay
[1] = target: T1, human α9 integrin molecule expressed on SW480 cells (human, UniProt Q13797 30-1035; P05556 21-798)
[2] = target: T1, human α9 integrin molecule expressed on …; remark: listed apart in the source
[3] = target: T1, human α9 integrin molecule expressed on …; remark: listed apart in the source

T1 sequence (Q13797 30-1035, form in doubt, chain 1 of 2): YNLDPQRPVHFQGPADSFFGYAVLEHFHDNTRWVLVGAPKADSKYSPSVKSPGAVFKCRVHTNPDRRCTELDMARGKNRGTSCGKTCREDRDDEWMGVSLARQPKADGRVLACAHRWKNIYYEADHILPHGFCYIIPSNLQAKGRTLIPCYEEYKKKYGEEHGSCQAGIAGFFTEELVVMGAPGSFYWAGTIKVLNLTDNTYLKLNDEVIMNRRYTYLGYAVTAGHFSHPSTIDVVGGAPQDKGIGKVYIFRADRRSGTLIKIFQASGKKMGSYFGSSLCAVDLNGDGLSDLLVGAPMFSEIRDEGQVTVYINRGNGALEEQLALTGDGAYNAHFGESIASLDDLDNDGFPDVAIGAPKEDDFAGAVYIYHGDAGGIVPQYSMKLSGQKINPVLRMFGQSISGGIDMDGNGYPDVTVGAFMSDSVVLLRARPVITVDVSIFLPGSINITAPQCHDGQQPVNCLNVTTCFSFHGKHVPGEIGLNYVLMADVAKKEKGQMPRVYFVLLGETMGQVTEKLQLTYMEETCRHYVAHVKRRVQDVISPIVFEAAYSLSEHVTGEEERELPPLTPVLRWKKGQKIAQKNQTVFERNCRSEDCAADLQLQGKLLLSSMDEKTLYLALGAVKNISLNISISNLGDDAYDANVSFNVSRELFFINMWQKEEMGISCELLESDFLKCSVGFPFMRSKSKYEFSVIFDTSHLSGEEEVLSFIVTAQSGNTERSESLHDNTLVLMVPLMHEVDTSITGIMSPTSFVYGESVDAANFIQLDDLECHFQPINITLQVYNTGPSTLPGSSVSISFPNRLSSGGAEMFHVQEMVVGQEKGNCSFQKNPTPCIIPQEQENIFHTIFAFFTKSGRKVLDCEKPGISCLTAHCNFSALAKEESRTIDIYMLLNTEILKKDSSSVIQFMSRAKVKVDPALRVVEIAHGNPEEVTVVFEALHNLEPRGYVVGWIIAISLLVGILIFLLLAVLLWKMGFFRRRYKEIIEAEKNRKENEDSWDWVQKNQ
T1 sequence (P05556 21-798, form in doubt, chain 2 of 2): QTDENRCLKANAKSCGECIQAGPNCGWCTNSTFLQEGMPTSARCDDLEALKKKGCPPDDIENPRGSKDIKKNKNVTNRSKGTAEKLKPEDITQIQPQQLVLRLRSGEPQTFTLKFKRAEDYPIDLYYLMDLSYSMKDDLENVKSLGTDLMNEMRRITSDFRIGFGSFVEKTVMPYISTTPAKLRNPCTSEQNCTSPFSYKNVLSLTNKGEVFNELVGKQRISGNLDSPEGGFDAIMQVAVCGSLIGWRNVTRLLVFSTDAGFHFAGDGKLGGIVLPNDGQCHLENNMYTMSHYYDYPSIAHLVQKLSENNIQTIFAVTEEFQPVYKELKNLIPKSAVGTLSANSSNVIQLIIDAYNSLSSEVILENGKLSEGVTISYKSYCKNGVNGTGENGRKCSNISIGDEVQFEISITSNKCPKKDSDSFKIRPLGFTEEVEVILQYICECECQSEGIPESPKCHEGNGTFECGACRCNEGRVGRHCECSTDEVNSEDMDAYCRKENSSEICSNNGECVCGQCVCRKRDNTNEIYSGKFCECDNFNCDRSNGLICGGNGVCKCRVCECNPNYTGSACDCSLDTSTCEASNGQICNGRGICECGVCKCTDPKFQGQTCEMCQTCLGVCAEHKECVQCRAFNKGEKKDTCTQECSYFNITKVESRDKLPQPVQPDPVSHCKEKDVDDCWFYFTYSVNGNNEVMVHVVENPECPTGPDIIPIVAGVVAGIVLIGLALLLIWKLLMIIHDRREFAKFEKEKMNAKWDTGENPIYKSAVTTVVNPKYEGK

Binder	specific activity (IC50 relative to mouse Y9A2 = 1), cell adhesion inhibition to human Tenascin C-RAA [1]	specific activity (IC50 relative to mouse Y9A2 = 1), cell adhesion inhibition to human VCAM-1 [1]	specific activity (IC50 relative to mouse Y9A2 = 1), cell adhesion inhibition, SW480/hα9 cells to nOPN-RAA [2]	specific activity (IC50 relative to mouse Y9A2 = 1), cell adhesion inhibition, SW480/hα9 cells to nOPN-RAA [3]
RY9A2v11(M34L)012 antibody (antibody, human IgG1, kappa, V domains shown) VH: QVQLVQSGAEVKKPGSSVKMSCKASGYTLTTYWLHWVKQRPGQGLEWIGYINPSSGYTEYNQKFQGRVTITADKSTSTAYMELSSLRSEDTAVYYCAIYGDYGDFYFDYWGQGTTVTVSS VL: DIQMTQSPSSLSASVGDRVTITCRASQSVNTDVAWYQQKPGKAPKLLIYFASNHYTGVPSRFSGSGSGTDFTFTISSLQPEDIATYYCRQDYSSPFTFGGGTKVEIKR	0.35 ratio to IC50 of mouse Y9A2	0.44 ratio to IC50 of mouse Y9A2	0.23 ratio to IC50 of mouse Y9A2	
RY9A2v501 antibody (antibody, V domains shown) VH: QVQLVQSGAEVKKPGSSVKMSCKASGYTLTTYWMHWVKQRPGQGLEWIGYINPSSGYTEYNQKFKDRVTITADKSTSTAYMELSSLRSEDTAVYYCAIYGDYGDFYFDYWGQGTTVTVSS VL: DIQMTQSPSSLSASVGDRVTITCKASQSVNTDVAWYQQKPGKAPKLLIYFASNHYTGVPSRFSGSGSGTDFTFTISSLQPEDIATYYCRQDYSSPFTFGGGTKVEIKR				0.77 ratio to IC50 of mouse Y9A2
RY9A2v5(IAW)01 antibody (antibody, human IgG1, kappa, V domains shown) VH: QVQLVQSGAEVKKPGSSVKMSCKASGYTLTTYWIHWVKQRPGQGLEWIGYINPSSGYTEYNQKFKDRVTITADKSTSTAYMELSSLRSEDTAVYYCAIYGDYGAWYFDYWGQGTTVTVSS VL: DIQMTQSPSSLSASVGDRVTITCKASQSVNTDVAWYQQKPGKAPKLLIYFASNHYTGVPSRFSGSGSGTDFTFTISSLQPEDIATYYCRQDYSSPFTFGGGTKVEIKR	0.44 ratio to IC50 of mouse Y9A2	1 ratio to IC50 of mouse Y9A2	0.29 ratio to IC50 of mouse Y9A2	

Further lines, results first:

specific activity (IC50 relative to mouse Y9A2 = 1), cell adhesion inhibition to human Tenascin C-RAA [1]	specific activity (IC50 relative to mouse Y9A2 = 1), cell adhesion inhibition to human VCAM-1 [1]	specific activity (IC50 relative to mouse Y9A2 = 1), cell adhesion inhibition, SW480/hα9 cells to nOPN-RAA [2]	specific activity (IC50 relative to mouse Y9A2 = 1), cell adhesion inhibition, SW480/hα9 cells to nOPN-RAA [3]	Binder
			0.82 ratio to IC50 of mouse Y9A2	RY9A2v801 antibody (antibody, V domains shown) VH: QVQLVQSGAEVKKPGSSVKVSCKASGYTLTTYWMHWVRQAPGQGLEWMGYINPSSGYTEYNQKFKDRVTITADKSTSTAYMELSSLRSEDTAVYYCAIYGDYGDFYFDYWGQGTTVTVSS VL: DIQMTQSPSSLSASVGDRVTITCKASQSVNTDVAWYQQKPGKAPKLLIYFASNHYTGVPSRFSGSGSGTDFTFTISSLQPEDIATYYCRQDYSSPFTFGGGTKVEIKR
0.26 ratio to IC50 of mouse Y9A2	0.95 ratio to IC50 of mouse Y9A2	0.23 ratio to IC50 of mouse Y9A2		RY9A2v12(M34L)012 antibody (antibody, human IgG1, kappa, V domains shown) VH: QVQLVQSGAEVKKPGSSVKVSCKASGYTLTTYWLHWVRQAPGQGLEWMGYINPSSGYTEYNQKFQGRVTITADKSTSTAYMELSSLRSEDTAVYYCAIYGDYGDFYFDYWGQGTTVTVSS VL: DIQMTQSPSSLSASVGDRVTITCRASQSVNTDVAWYQQKPGKAPKLLIYFASNHYTGVPSRFSGSGSGTDFTFTISSLQPEDIATYYCRQDYSSPFTFGGGTKVEIKR
1 ratio to IC50 of mouse Y9A2	1 ratio to IC50 of mouse Y9A2	1 ratio to IC50 of mouse Y9A2	1 ratio to IC50 of mouse Y9A2	mouse anti-human α9 integrin antibody Y9A2 (antibody, V domains shown) VH: QVQLQQSGAELANPGASVKMSCKASGYTLTTYWMHWVKQRPGQGLEWIGYINPSSGYTEYNQKFKDKATLTADKSSSTAYMQLTSLTSEDSAVYYCAIYGDYGDFYFDYWGQGTTLTVSS VL: SIVMTQTPKFLLVSAGDRVTMTCKASQSVNTDVAWFQQKPGQSPKLLIYFASNHYTGVPDRFTGSGYGTDFTFTISTVQAEDLAIYFCRQDYSSPFTFGGGTKLEIKR
